Measured values from publication PMC5548887 (2017).

Experiments:
UbcH7 wild type = UbcH7 wild type (UniProt P68036 1-154); experiment: ITC
UbcH7 K96S = UbcH7 K96S (UniProt P68036 1-154, K96S); experiment: ITC

Kd (UbcH7 wild type): 965 nM | Kd (UbcH7 K96S): 15.7 µM
B1: HHARI^ΔHG (protein)
chain: MDSDEGYNYEFDEDEECSEEDSGAEEEEDEDDDEPDDDTLDLGEVELVEPGLGVGGERDGLLCGETGGGGGSALGPGGGGGGGGGGGGGGPGHEQEEDYRYEVLTAEQILQHMVECIREVNEVIQNPATITRILLSHFNWDKEKLMERYFDGNLEKLFAECHVINPSKKSRTRQMNTRSSAQDMPCQICYLNYPNSYFTGLECGHKFCMQCWSEYLTTKIMEEGMGQTISCPACDILVDDNTVMRLITDSKVKLKYQHLITNSFVECNRLLKWCPAPDCHHVVKVQYPDAKPVRCKCGRQFCFNCGENWHDPVKCKWLKKWIKKCDDDSETSNWIAANTKECPKCHVTIEKDGGCNHMVCRNQNCKAEFCWVCLGPWEPHGSAWYNCNRYNEDDAKAA
